Experiment [1] has as its target T1, ^FLAGSwi4-Swi6 complex (S. cerevisiae, UniProt P25302 1-1093; P09959 1-803).
T1 construct: Swi4, S. cerevisiae; Swi6, S. cerevisiae; also called SBF; recombinant SBF; source: baculovirus-infected insect cells, purified (anti-FLAG M2 resin, eluted with FLAG peptide)
The experiment is described as follows: co-IP; recombinant ^FLAGSwi4-Swi6-^GSTWhi5 complexes (0.1 ug ^GSTWhi5) incubated with 0.1, 0.2 and 0.5 ug His6-tagged Nrs1 (4, 8 and 20 Nrs1:Whi5 molar ratio), captured on anti-FLAG beads; blots with anti-GST and anti-HIS6. The note with it: both partners purified.

For experiment [2], the target named is T1, ^FLAGSwi4-Swi6 complex. The experiment is described as follows: pull-down; recombinant ^HAWhi5 or ^GSTNrs1 titrated into preformed ^FLAGSwi4-Swi6-^GSTNrs1 or ^FLAGSwi4-Swi6-^HAWhi5 complexes immobilised on anti-FLAG resin; immunoblot and Coomassie. The note with it: both partners purified.

The results in this text go back to article PMC8893695, “The microprotein Nrs1 rewires the G1/S transcriptional machinery during nitrogen limitation in budding yeast” (PLoS Biology, 2022).

T1 sequence (P25302 whole entry, chain 1 of 2): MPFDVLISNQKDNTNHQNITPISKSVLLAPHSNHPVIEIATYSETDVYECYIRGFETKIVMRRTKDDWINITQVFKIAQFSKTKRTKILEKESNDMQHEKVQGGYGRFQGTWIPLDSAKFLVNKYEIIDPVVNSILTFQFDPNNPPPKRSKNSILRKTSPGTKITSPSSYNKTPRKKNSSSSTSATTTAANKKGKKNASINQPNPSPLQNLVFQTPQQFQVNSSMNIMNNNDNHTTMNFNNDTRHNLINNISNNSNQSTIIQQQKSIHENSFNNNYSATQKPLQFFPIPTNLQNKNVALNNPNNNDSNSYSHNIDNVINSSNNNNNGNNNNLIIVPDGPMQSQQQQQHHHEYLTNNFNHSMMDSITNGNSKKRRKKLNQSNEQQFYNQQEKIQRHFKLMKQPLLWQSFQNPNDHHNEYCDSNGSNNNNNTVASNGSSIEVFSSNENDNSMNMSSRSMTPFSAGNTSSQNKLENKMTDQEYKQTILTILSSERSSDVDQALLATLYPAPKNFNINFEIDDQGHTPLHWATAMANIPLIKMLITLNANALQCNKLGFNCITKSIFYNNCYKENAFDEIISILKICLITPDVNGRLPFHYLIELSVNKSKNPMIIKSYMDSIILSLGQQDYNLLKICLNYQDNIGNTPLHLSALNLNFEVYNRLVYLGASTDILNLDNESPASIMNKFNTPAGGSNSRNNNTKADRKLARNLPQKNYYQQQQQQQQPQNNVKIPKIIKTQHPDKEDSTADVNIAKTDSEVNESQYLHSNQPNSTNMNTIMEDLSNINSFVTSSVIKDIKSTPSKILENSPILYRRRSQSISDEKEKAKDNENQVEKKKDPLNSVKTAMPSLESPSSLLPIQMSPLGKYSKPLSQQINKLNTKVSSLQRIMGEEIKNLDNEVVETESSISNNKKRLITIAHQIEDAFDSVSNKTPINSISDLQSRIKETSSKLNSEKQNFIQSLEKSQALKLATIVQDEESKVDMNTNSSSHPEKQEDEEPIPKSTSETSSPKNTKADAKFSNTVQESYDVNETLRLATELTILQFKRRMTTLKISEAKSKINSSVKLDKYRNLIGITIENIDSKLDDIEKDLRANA
T1 sequence (P09959 whole entry, chain 2 of 2): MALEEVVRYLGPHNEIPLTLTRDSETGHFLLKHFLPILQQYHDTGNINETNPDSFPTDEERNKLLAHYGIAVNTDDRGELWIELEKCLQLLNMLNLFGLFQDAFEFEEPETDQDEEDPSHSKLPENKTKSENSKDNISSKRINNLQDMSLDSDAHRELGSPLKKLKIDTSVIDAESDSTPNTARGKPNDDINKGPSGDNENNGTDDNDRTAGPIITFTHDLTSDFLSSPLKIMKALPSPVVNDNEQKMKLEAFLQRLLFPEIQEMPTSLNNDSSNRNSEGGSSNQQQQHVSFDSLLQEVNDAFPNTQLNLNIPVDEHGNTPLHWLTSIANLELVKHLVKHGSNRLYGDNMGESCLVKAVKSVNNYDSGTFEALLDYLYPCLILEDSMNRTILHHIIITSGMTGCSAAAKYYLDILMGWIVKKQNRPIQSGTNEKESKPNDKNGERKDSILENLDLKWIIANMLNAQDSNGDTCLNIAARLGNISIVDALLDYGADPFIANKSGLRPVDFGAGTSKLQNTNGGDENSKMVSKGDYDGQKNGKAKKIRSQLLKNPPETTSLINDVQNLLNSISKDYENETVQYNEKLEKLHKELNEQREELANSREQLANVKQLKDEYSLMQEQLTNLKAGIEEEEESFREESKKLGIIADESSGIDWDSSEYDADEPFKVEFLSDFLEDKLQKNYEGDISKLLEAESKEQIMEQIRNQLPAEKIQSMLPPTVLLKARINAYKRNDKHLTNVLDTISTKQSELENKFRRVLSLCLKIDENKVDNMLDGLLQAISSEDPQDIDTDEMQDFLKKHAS

B1: ^GSTWhi5 (natural protein, S. cerevisiae, UniProt Q12416 1-295, looked up)
chain: MSLRTPKRSRTSDEQEQEQEQEQVQNPDTHVNNEHQQRPGPTTLLSTPVRLKNGFGTPSPPSPPGITKSITKSRRRPSTTSLQGIFMSPVNKRRVGITAHGRVYDHNDDGHESESEDDENEEENENQKKYDGHVSMPLLPPTTPKSRRSEVFLSPSPRLRSPPTAARRSTGERPIREISHTLRTRLNYALVKLQNGWTDKTLPELETELAPAVQTPPRRYHNRFPDSADAGTSAHTAFLQALGGHPPREEATAVETLMLLSSPTKKQQHRPVPATSAGEPTDETEPESDTEVETS
notes: Whi5, S. cerevisiae; also called recombinant GST-tagged Whi5; source: recombinant
Regarding B1, the binding result with ^FLAGSwi4-Swi6 complex [1] is on record as “binds”.

B2: recombinant ^HAWhi5 (natural protein, S. cerevisiae, UniProt Q12416 1-295, looked up)
chain: MSLRTPKRSRTSDEQEQEQEQEQVQNPDTHVNNEHQQRPGPTTLLSTPVRLKNGFGTPSPPSPPGITKSITKSRRRPSTTSLQGIFMSPVNKRRVGITAHGRVYDHNDDGHESESEDDENEEENENQKKYDGHVSMPLLPPTTPKSRRSEVFLSPSPRLRSPPTAARRSTGERPIREISHTLRTRLNYALVKLQNGWTDKTLPELETELAPAVQTPPRRYHNRFPDSADAGTSAHTAFLQALGGHPPREEATAVETLMLLSSPTKKQQHRPVPATSAGEPTDETEPESDTEVETS
notes: Whi5, S. cerevisiae; source: recombinant
Regarding B2, the binding result in the experiment with ^FLAGSwi4-Swi6 complex [2] was “binds”.
